Blank lines part the entries; values can stand above or below the binder they belong to.
B7: GST-POP3 (other)
chain: MESKYKEILLLTSLDNITDEELDRFKCFLPDEFNIATGKLHTLNSTSSQLDLKRWHGVCSEEDRIFQKLNYMLVAKCLREEQETGICGSPSSARSVSQSRLGLSFHGISGNAC
notes: also called recombinant POP3; immobilized GST-POP3; not shown: glutathione S-transferase (GST) tag encoded by pGEX-4T1

Columns and labels:
GST control = target: T1, GST control (UniProt P08515 1-218 = GST); experiment: GST pull-down (FIG. 4a)
T1 construct: Negative control of the GST pull-downs
T1 sequence (P08515 whole entry): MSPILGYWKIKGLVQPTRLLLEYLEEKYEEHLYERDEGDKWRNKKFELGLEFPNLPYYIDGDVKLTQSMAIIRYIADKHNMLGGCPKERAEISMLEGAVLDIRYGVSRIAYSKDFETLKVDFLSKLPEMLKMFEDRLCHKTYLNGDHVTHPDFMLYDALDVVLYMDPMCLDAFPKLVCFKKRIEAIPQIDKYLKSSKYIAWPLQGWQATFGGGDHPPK
Protocol: (§1) For GST pull down experiments, POP3 was cloned into pGEX-4T1 and affinity purified as a GST fusion protein from E. coli BL21. Proteins were either prepared by in vitro transcription/translation (TNT Quick Coupled Transcription/Translation, Promega), or TCL were prepared from […] (16 hrs) BMDM or THP-1 cells by lysis (50 mM Hepes pH 7.4, 120 mM NaCl, 10% Glycerol, 2 mM EDTA, 0.5% Triton X-100, supplemented with protease inhibitors) as a source of endogenous proteins, and cleared lysates were incubated with immobilized GST-POP3 or GST control for 16 hrs at 4° C., followed by extensive washing with lysis buffer and analysis as above. For ASC cross-linking, 4×10⁶ BMDM were seeded in 60 mm plates and subjected to cross-linking as described 55. Briefly, cells were transfected with 1 μg/ml poly (dA:dT) for 5 hrs, supernatants were removed, cells rinsed with ice-cold PBS and lysed (20 mM Hepes pH 7.4, 100 mM NaCl, 1% NP-40, 1 mM sodium orthovanadate, supplemented with protease inhibitors) and further lysed by shearing. Cleared lysates were stored for immunoblot analysis and the insoluble pellets were resuspended in 500 μl PBS, supplemented with 2 mM disuccinimydyl suberate (DSS, Pierce) and incubated with rotation at room temperature for 30 min. Samples were centrifuged at 5,000 rpm for 10 min at 4° C. and the cross-linked pellets were resuspended in 50 μl Laemmli sample buffer and analyzed by immunoblot. Human lung tissue was embedded in paraffin, cut into 3 μm sections, mounted, deparaffinized and immunostained with mouse monoclonal CD68 (Dako) and rabbit polyclonal POP3 and peroxidase (HRP)/DAB+ and alkaline phosphatase (AP)/Fast Red enzyme/chromogen combinations (Dako) and specific isotype controls (Dako) and haemotoxylin counterstaining of nuclei.
(§2) GST-POP3, but not GST control, bound to the PYD of AIM2 and IF116.

GST-POP3 = target: B7; experiment: GST pull-down (FIG. 4a)
Protocol: as §1, §2

AIM2 from BMDM = target: T2, AIM2 from BMDM (mouse, UniProt Q91VJ1 1-354); experiment: GST pull-down from BMDM lysates (FIG. 22c)
T2 construct: also called mAIM2; mouse AIM2
T2 sequence (looked up): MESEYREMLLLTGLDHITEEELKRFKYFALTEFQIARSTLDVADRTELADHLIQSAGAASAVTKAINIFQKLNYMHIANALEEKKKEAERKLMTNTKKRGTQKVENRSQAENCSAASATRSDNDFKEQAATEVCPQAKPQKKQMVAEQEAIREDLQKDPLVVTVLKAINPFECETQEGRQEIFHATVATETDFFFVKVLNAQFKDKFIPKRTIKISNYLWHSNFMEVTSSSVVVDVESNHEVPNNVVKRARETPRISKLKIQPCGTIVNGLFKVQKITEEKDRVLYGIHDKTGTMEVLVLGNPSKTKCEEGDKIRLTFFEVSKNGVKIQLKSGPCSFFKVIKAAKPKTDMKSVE
Protocol: (§3) POP1 was expressed from pGEX-4T1 and affinity purified as a GST fusion protein from E. coli BL21 (Stehlik et al. Biochem. J 373, 101-113 (2003); herein incorporated by reference in its entirety). Protein lysates were prepared from LPS-treated (16 h) BMDM or THP-1 cells by lysis (50 mM Hepes pH 7.4, 120 mM NaCl, 10% Glycerol, 2 mM EDTA, 0.5% Triton X-100, supplemented with protease inhibitors), and cleared lysates were incubated with immobilized GST-POP1 or GST control for 16 h at 4° C., followed by extensive washing with lysis buffer and analysis as above.

NLRP3 from BMDM = target: T3, NLRP3 from BMDM (mouse, UniProt Q8R4B8 1-1033); experiment: GST pull-down from BMDM lysates (FIG. 22c)
T3 construct: also called mNLRP3; mouse NLRP3
T3 sequence (Q8R4B8 whole entry): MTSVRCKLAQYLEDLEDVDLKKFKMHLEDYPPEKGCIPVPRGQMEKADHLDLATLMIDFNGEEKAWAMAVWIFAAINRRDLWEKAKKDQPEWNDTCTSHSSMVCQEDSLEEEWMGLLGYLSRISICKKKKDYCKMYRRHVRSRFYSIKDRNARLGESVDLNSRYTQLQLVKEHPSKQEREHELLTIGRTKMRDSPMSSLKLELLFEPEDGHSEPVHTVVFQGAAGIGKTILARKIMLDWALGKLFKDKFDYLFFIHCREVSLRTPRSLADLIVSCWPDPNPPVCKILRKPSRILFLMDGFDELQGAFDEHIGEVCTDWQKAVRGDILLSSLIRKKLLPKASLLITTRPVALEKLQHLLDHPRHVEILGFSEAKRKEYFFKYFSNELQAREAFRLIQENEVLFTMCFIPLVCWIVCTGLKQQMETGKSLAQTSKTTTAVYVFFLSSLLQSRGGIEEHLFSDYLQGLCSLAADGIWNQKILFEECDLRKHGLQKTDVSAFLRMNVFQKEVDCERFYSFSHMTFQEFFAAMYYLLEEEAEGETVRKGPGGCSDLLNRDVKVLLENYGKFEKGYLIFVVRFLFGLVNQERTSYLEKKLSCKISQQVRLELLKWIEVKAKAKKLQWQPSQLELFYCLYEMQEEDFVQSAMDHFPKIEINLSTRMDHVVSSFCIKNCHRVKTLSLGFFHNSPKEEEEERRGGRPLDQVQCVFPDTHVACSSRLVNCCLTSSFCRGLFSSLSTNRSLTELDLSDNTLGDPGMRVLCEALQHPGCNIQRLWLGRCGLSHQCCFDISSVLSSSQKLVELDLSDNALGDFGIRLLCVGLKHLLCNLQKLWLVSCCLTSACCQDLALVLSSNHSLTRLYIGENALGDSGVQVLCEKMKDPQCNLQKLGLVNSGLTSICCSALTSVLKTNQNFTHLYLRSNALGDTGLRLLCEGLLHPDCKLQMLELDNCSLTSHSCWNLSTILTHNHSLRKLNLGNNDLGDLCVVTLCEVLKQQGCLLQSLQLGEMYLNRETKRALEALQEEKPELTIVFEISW
Protocol: as §3

NLRP3 = target: T4, NLRP3 (human, UniProt Q96P20 1-1036); experiment: GST pull-down from THP-1 lysates (FIG. 18a)
T4 construct: Endogenous in THP-1 lysates; MYC-tagged where transfected into HEK293; also called MYC-NLRP3; endogenous NLRP3
T4 sequence (Q96P20 whole entry): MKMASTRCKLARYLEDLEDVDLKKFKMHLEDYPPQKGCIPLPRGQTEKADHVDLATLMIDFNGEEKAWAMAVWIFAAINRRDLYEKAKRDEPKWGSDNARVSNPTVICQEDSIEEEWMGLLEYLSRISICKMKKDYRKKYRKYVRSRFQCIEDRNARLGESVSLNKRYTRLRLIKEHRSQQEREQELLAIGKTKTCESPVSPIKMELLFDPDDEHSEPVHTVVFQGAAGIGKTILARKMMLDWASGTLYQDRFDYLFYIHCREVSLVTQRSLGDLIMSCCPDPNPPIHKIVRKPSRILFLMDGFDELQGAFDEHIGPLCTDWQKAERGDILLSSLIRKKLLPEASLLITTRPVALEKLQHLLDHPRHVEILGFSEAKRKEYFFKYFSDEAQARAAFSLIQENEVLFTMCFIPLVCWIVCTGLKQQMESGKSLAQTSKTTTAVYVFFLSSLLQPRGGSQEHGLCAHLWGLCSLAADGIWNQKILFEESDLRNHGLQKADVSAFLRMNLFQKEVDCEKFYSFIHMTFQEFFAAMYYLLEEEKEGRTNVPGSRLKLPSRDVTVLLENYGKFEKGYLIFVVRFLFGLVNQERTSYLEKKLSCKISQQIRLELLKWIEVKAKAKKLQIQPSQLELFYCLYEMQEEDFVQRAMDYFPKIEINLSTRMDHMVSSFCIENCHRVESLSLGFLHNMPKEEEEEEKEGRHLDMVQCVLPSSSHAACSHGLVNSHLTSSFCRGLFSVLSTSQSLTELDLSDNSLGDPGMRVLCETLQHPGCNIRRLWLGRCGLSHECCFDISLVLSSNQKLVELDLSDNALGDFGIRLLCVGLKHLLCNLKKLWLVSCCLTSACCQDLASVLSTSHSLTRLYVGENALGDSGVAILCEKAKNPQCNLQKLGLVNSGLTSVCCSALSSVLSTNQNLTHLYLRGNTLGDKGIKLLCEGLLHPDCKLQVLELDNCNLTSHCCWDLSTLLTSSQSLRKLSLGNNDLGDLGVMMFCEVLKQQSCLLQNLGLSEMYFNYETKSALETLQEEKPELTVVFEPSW
Protocol: as §3
(§4) Recruitment of ASC to upstream sensors is essential for inflammasome activation. POP1 specifically bound to endogenous ASC, but not to the PYD-containing PRRs NLRP3 and AIM2 in LPS-primed THP-1 cells (FIG. 18a), emphasizing the selectivity of these interactions. […] Binding of ASC to NLRP3 induces ASC^PYD nucleation, which provides the oligomeric platform essential for caspase-1 activation (Lu et al. Cell 156, 1193-206 (2014); Cai et al. Cell 156, 1207-22 (2014); herein incorporated by reference in their entireties). […] POP1 binding to the ASC^PYD could also directly prevent ASC^PYD self-polymerization.

AIM2 [1] = target: T5, AIM2 (human, UniProt O14862 1-343); experiment: GST pull-down from THP-1 lysates (FIG. 18a)
T5 construct: Endogenous in THP-1 lysates and hMΦ; N-terminally tagged (RFP, myc) where transfected into HEK293; also called endogenous AIM2; RFP-AIM2
T5 sequence (looked up): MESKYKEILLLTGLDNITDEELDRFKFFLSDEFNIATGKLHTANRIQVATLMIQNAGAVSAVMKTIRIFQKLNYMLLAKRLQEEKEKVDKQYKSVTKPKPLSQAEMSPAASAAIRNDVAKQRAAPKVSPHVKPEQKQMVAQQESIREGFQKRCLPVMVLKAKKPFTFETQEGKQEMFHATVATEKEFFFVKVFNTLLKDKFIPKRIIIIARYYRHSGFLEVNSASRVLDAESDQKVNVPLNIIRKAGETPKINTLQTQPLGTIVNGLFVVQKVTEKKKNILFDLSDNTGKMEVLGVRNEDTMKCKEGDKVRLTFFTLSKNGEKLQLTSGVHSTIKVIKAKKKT
Protocol: as §3, §4

AIM2 [2] = target: T5, AIM2; experiment: figure title (pull-down, co-IP, co-localisation)
co-IP in HEK293 cells = target: the molecule itself; experiment: co-IP in HEK293 cells
mouse ASC = target: T6, mouse ASC (mouse, UniProt Q9EPB4 1-193); experiment: GST pull-down from BMDM lysates (FIG. 11a)
T6 construct: also called mASC; endogenous ASC in BMDM
T6 sequence (looked up): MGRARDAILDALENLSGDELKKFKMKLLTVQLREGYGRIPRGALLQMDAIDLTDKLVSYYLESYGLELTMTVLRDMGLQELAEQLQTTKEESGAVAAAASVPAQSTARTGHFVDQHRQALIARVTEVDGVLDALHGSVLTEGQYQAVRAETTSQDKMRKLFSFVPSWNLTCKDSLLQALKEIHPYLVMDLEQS
Protocol: For GST pull down experiments, POP3 was cloned into pGEX-4T1 and affinity purified as a GST fusion protein from E. coli BL21. Proteins were either prepared by in vitro transcription/translation (TNT Quick Coupled Transcription/Translation, Promega), or TCL were prepared from […] (16 hrs) BMDM or THP-1 cells by lysis (50 mM Hepes pH 7.4, 120 mM NaCl, 10% Glycerol, 2 mM EDTA, 0.5% Triton X-100, supplemented with protease inhibitors) as a source of endogenous proteins, and cleared lysates were incubated with immobilized GST-POP3 or GST control for 16 hrs at 4° C., followed by extensive washing with lysis buffer and analysis as above. For ASC cross-linking, 4×10⁶ BMDM were seeded in 60 mm plates and subjected to cross-linking as described 55. […] Samples were centrifuged at 5,000 rpm for 10 min at 4° C. and the cross-linked pellets were resuspended in 50 μl Laemmli sample buffer and analyzed by immunoblot. […]
The PYDs of human and mouse ALRs are well conserved. […] To delineate the mechanism by which POP3 inhibits ALR inflammasomes in mouse macrophages, ASC oligomerization was analyzed in response to AIM2 inflammasome stimulation with poly(dA:dT) in WT and CD68-POP3 TG BMDM as a readout for AIM2 inflammasome formation (Fernandes-Alnemri et al. Nature.

B1: PYD of AIM2 (other, human, UniProt O14862 1-87, looked up)
chain: MESKYKEILLLTGLDNITDEELDRFKFFLSDEFNIATGKLHTANRIQVATLMIQNAGAVSAVMKTIRIFQKLNYMLLAKRLQEEKEK
notes: domain: PYD; Made by in vitro transcription/translation for the GST pull-down; GFP- or RFP-tagged in HEK293 for the antibody specificity blot; also called AIM2-PYD
- binding result (GST control): no binding

B2: PYD of MNDA (other, human, UniProt P41218 1-88, looked up)
chain: MVNEYKKILLLKGFELMDDYHFTSIKSLLAYDLGLTTKMQEEYNRIKITDLMEKKFQGVACLDKLIELAKDMPSLKNLVNNLRKEKSK
notes: domain: PYD; also called MNDA-PYD
- binding result (GST-POP3): no binding

B6: POP3 (other)
chain: MESKYKEILLLTSLDNITDEELDRFKCFLPDEFNIATGKLHTLNSTSSQLDLKRWHGVCSEEDRIFQKLNYMLVAKCLREEQETGICGSPSSARSVSQSRLGLSFHGISGNAC
notes: POP3 as expressed in cells (HEK293, THP-1, hMΦ); in some microscopy endogenous POP3; also called GFP-POP3; PYRIN domain-only protein 3; not shown: N-terminal tag; GFP-POP3 is named for the co-IP, constructs with myc, HA, Flag, GFP or RFP were made
- binding result (AIM2 [2]): binds
- binding result (co-IP in HEK293 cells): binds

Binder: B7
- binding result (mouse ASC): no binding

Continued, values first:

- binding result (AIM2 from BMDM): no binding
- binding result (NLRP3 from BMDM): no binding
- binding result (NLRP3): no binding
- binding result (AIM2 [1]): no binding
B3: GST-POP1 (other)
chain: MGTKREAILKVLENLTPEELKKFKMKLGTVPLREGFERIPRGALGQLDIVDLTDKLVASYYEDYAAELVVAVLRDMRMLEEAARLQRAA
notes: also called immobilized GST-POP1; not shown: glutathione S-transferase (GST) tag encoded by pGEX-4T1

- binding result (GST control): no binding
B4: PYD of IFI16 (other, human, UniProt Q16666 1-88, looked up)
chain: MGKKYKNIVLLKGLEVINDYHFRMVKSLLSNDLKLNLKMREEYDKIQIADLMEEKFRGDAGLGKLIKIFEDIPTLEDLAETLKKEKLK
notes: domain: PYD; also called IFI16-PYD; IF116 PYD

- binding result (GST-POP3): no binding
B5: PYD of PYHIN1 (other, human, UniProt Q6K0P9 1-88, looked up)
chain: MANNYKKIVLLKGLEVINDYHFRIVKSLLSNDLKLNPKMKEEYDKIQIADLMEEKFPGDAGLGKLIEFFKEIPTLGDLAETLKREKLK
notes: domain: PYD; also called IFIX-PYD

Source: US20160354437A1 (NORTHWESTERN UNIVERSITY, published 2016)
